In assay [1] the target is Tva fused with HA tag and the human IgG-Fc fragment (pCAGGS-Tva-HA-Fc).
Assay [2] shares this target. Briefly: co-IP with grey value analysis. Particulars: parent: est. 1.0; read off a plot.
Assay [3] shares this target. The source holds these as a separate data set.
For assay [4] the target is unchanged. The source holds these as a separate data set.

Where two headings read alike, the source gives them in different places.

In the case of ALV-A gp85 G324P (domain or fragment), the competitive blocking test: percent GFP-positive DF-1 cells after incubation with the concentrated soluble gp85 and infection with RCASBP(A)-EGFP in assay [1] amounted to 5.5%.

ALV-A gp85 I326T (domain or fragment) yielded a competitive blocking test: percent GFP-positive DF-1 cells after incubation with the concentrated soluble gp85 and infection with RCASBP(A)-EGFP in assay [1] of 4.5%.

Regarding “ALV-A gp85 wt (soluble gp85 of ALV-A RSA, pCAGGS-s-gp85-flag) 328_329insP”, the ratio to parent in assay [2] is 0.71.

As to “ALV-A gp85 wt (soluble gp85 of ALV-A RSA, pCAGGS-s-gp85-flag) A270del”, in assay [2], the ratio to parent was 0.93.

“ALV-A gp85 wt (soluble gp85 of ALV-A RSA, pCAGGS-s-gp85-flag) N269del”: the ratio to parent in assay [2] came out at 0.91.

“recombinant ALV-A gp85 R274V (domain or fragment)”: the competitive blocking test: percent GFP-positive DF-1 cells after incubation with the concentrated soluble gp85 and infection with RCASBP(A)-EGFP in assay [3] stood at 9.5%.

The substance “soluble recombinant ALV-A gp85 328_329insP (domain or fragment)” displayed a competitive blocking test: percent GFP-positive DF-1 cells after incubation with the concentrated soluble gp85 and infection with RCASBP(A)-EGFP in assay [1] of 12.5%.

Substance “soluble recombinant chimeric protein gp85 s8 (ALV-A gp85 with segment s8, residues 269-275, replaced by that of ALV-K) (domain or fragment)” returned a competitive blocking test: percent GFP-positive DF-1 cells after incubation with the concentrated soluble gp85 and infection with RCASBP(A)-EGFP in assay [4] of 11%.

The record behind these values is PMC9400301.
